In one experiment the target is T1, SARS-CoV-2 S1 protein (SARS-CoV-2, UniProt P0DTC2 16-685).
T1 construct: domain: S1
Description: ELISA, coated protein. On the technique in general: In an ELISA, binding on a coated surface is turned into a signal by an enzyme label.

The target in experiment [1] is T2, SARS-CoV S protein expressed on the cell surface (SARS-CoV, UniProt P59594 14-1255).
T2 construct: whole, on cells
Description: flow cytometry on CHO cells transfected with S protein. (In general: In flow cytometry, cells or beads pass a laser one at a time.)

B1: fully human monoclonal antibody 76E1 (antibody, V domains shown)
VH: EVQLVESGGGVVQPGGSLRLSCEASGFSFKDYGMHWIRQTPGKGLEWISRISGDTRGTSYVDSVKGRFIVSRDNSRNSLFLQMNSLRSEDTALYYCAALVIVAAGDDFDLWGQGTVVTVSS
VL: QSALTQPLSVSGSPGQSVTISCTGSSSDIGSYNFVSWYRQYPGKAPKVMIYEVNKRPSGVPVRFSGSKSGNTASLTVSGLQHEDEADYYCCSYGGRNNLIFGGGTKLTVL
notes: also called 76E1 antibody
Regarding B1, the binding result is recorded as “no binding (tested: 10 µg/ml initial test concentration)” in the experiment with SARS-CoV-2 S1 protein and “binds” in experiment [1].

The record behind these values is patent US20240067706A1 (CENTER FOR EXCELLENCE IN MOLECULAR CELL SCIENCE CHINESE …, published 2024).
